Measurements taken from publication PMC6063399, “Thiol-maleimide poly(ethylene glycol) crosslinking of L-asparaginase subunits at recombinant cysteine residues introduced by mutagenesis” (PLoS ONE, 2018).

Target: the molecule itself
Assay: SEC; Superdex 200 10/300 GL in crosslinking buffer (0.1 M potassium phosphate, 5 mM EDTA, 0.150 M NaCl, pH 6.5-7.0), 0.75 ml/min; mutant reduced with TCEP before loading; fractions followed by A280 and catalytic activity; starting solution of low purity

B1: L-asparaginase mutant A38C-T263C (enzyme, E. coli, UniProt P00805 23-348, looked up)
chain: LPNITILATGGTIAGGGDSATKSNYTVGKVGVENLVNCVPQLKDIANVKGEQVVNIGSQDMNDNVWLTLAKKINTDCDKTDGFVITHGTDTMEETAYFLDLTVKCDKPVVMVGAMRPSTSMSADGPFNLYNAVVTAADKASANRGVLVVMNDTVLDGRDVTKTNTTDVATFKSVNYGPLGYIHNGKIDYQRTPARKHTSDTPFDVSKLNELPKVGIVYNYANASDLPAKALVDAGYDGIVSAGVGNGNLYKSVFDTLATAAKCGTAVVRSSRVPTGATTQDAEVDDAKYGFVASGTLNPQKARVLLQLALTQTKDPQQIQQIFNQY
notes: L-asparaginase II of E. coli (ansB), expressed with its natural signal peptide, which was excised; In the cross-linking experiments the two introduced cysteines were reacted with Bi-MAL-PEG (2000 or 5000 g/mol) after reduction with TCEP; also called mutant L-asparaginase; precursor mutant
binding result: binds
